The record followed here is the Human Domainome abundance scans (Beltran et al. 2025).

± gives the uncertainty stated by the source.

B1: POU domain, class 3, transcription factor 2, residues 262 to 338; numbered along this chain, P20265 (parent)
chain: EDTPTSDDLEQFAKQFKQRRIKLGFTQADVGLALGTLYGNVFSQTTICRFEALQLSFKNMCKLKPLLNKWLEEADSS

Variants of B1 are the subject of this data set. The experiment in a line: abundance fitness (aPCA) (normalised: wild type 0, dead -1); higher = more abundant; growth selection in yeast, the domain comes from the species named. The following applies: Homo sapiens.
For the variant EDTPTSDDLEQFAKQVKQRRIKLGFTQADVGLALGTLYGNVFSQTTICRFEALQLSFKNMCKLKPLLNKWLEEADSS [F16V], the abundance fitness is -0.671 ± 0.042.

For EDTPTSDDLEQFAKQFKQRRIKLGFTQADVGLALGTLYGNVFSQTTICRFEALQLSFKNMCKLQPLLNKWLEEADSS [K64Q], the abundance fitness is -0.067 ± 0.045.

For EDTPTSDDLEQFAKQFKQRRIKLGFTQADVGLALGTLYGNVFSQTTICRFEALQLSFKNMCKLKPLLNKWLEQADSS [E73Q], the abundance fitness came out at 0.159 ± 0.098. For EDTPTSDDLEQFAKQFKQRRIKLGFTQADVGLALGTLYGNPFSQTTICRFEALQLSFKNMCKLKPLLNKWLEEADSS [V41P], the abundance fitness is -0.042 ± 0.069. As to EDTPTSDDLEQFAKQFKQRRIKLGFTQADVGLALGTLYGNHFSQTTICRFEALQLSFKNMCKLKPLLNKWLEEADSS [V41H], the abundance fitness was 0.039 ± 0.16.

On to EDTPTSDDLEQFAKQFKQRRIKLGFTQADVGLALGTLYENVFSQTTICRFEALQLSFKNMCKLKPLLNKWLEEADSS [G39E], for which the abundance fitness is -0.207 ± 0.036. Under EDTPTSDDLEQFAKQFKQRRIKLGFTQADVGLALGTLYWNVFSQTTICRFEALQLSFKNMCKLKPLLNKWLEEADSS [G39W] stands -0.715 ± 0.064. EDTPTSDDLEQFAKQFKQRRIKLGFTQADVGLALGTLYMNVFSQTTICRFEALQLSFKNMCKLKPLLNKWLEEADSS [G39M]: the abundance fitness was -0.624 ± 0.074. For the variant EDTPTSDDLEQFAKQFKQRRIKLGFTQADVGLALGTLYGNVFSQTTICRFEALQLSFKNMGKLKPLLNKWLEEADSS [C61G], the abundance fitness is -0.278 ± 0.027. Regarding EDIPTSDDLEQFAKQFKQRRIKLGFTQADVGLALGTLYGNVFSQTTICRFEALQLSFKNMCKLKPLLNKWLEEADSS [T3I], the abundance fitness was 0.094 ± 0.06. As to EDTPTSDDLEQFAKQFKQRRIKLGFTQADVGLALGTLYGNVFSQTTICRFEALQLSFKLMCKLKPLLNKWLEEADSS [N59L], the abundance fitness turned out to be 0.029 ± 0.042. Take EDTPTSDDLEQFAKQFKQRRIKLGFTQADVGLALGTLYGNVFSQTTICRFEALQLSFKSMCKLKPLLNKWLEEADSS [N59S]: the abundance fitness is -0.001 ± 0.039. Consider EDTPTSDDLEQFAKQFKQRRIKLGETQADVGLALGTLYGNVFSQTTICRFEALQLSFKNMCKLKPLLNKWLEEADSS [F25E], for which the abundance fitness was -0.773 ± 0.092. Under EDTPTSDRLEQFAKQFKQRRIKLGFTQADVGLALGTLYGNVFSQTTICRFEALQLSFKNMCKLKPLLNKWLEEADSS [D8R] stands -0.234 ± 0.029; under EDTPTSDELEQFAKQFKQRRIKLGFTQADVGLALGTLYGNVFSQTTICRFEALQLSFKNMCKLKPLLNKWLEEADSS [D8E], 0.079 ± 0.041. Under EDTPTSDDLIQFAKQFKQRRIKLGFTQADVGLALGTLYGNVFSQTTICRFEALQLSFKNMCKLKPLLNKWLEEADSS [E10I] stands -0.086 ± 0.069. Under EDTPTSDDLEQFAKQFKQRRIKLGFTQADVGLALGALYGNVFSQTTICRFEALQLSFKNMCKLKPLLNKWLEEADSS [T36A] stands -0.021 ± 0.033.

EDTPTSDDLEQFAKQFKQRRIKLAFTQADVGLALGTLYGNVFSQTTICRFEALQLSFKNMCKLKPLLNKWLEEADSS [G24A]: the abundance fitness is -0.598 ± 0.04.

EDTPTSDDLEQFAKQFKQRRIKLGFTQADVGLALGTLYGNVFSQTTICRFEALQLSFKNMCPLKPLLNKWLEEADSS [K62P]: the abundance fitness was -0.99 ± 0.15. With EDTPTSDDLEQFAKQFKQDRIKLGFTQADVGLALGTLYGNVFSQTTICRFEALQLSFKNMCKLKPLLNKWLEEADSS [R19D] the figure was -0.334 ± 0.11; with EDTPTSDDLEQFAKQFKQGRIKLGFTQADVGLALGTLYGNVFSQTTICRFEALQLSFKNMCKLKPLLNKWLEEADSS [R19G], -0.308 ± 0.034; with EDTPTSDDLEQFLKQFKQRRIKLGFTQADVGLALGTLYGNVFSQTTICRFEALQLSFKNMCKLKPLLNKWLEEADSS [A13L], -0.759 ± 0.082. EDTPTSDDLEQFFKQFKQRRIKLGFTQADVGLALGTLYGNVFSQTTICRFEALQLSFKNMCKLKPLLNKWLEEADSS [A13F]: the abundance fitness was -0.84 ± 0.2. For the variant EDTPTSDDLEQFNKQFKQRRIKLGFTQADVGLALGTLYGNVFSQTTICRFEALQLSFKNMCKLKPLLNKWLEEADSS [A13N], the abundance fitness is -1.07 ± 0.28. Take EDTPTSDDLEQFAKQFKQRRIKLGFTQADVGLALGTLYGNVFSQTTICRFEVLQLSFKNMCKLKPLLNKWLEEADSS [A52V]: the abundance fitness is -0.615 ± 0.043.

As to EDTPTSDDLEQFAKQFKQRRIKLGFTQADVGLALGTSYGNVFSQTTICRFEALQLSFKNMCKLKPLLNKWLEEADSS [L37S], the abundance fitness was -0.093 ± 0.037. Consider EDTPTSDDLEQFAKQFKQRRIKLGFTQADVGLHLGTLYGNVFSQTTICRFEALQLSFKNMCKLKPLLNKWLEEADSS [A33H], for which the abundance fitness was -0.002 ± 0.075. As for EDTPTSDDLEQFAKQFKQRRIKLGFTQADVGLCLGTLYGNVFSQTTICRFEALQLSFKNMCKLKPLLNKWLEEADSS [A33C], the abundance fitness is -0.19 ± 0.051.

As to EDTPTSDDLEQFAKQFKQRRIKLGFTQASVGLALGTLYGNVFSQTTICRFEALQLSFKNMCKLKPLLNKWLEEADSS [D29S], the abundance fitness was -0.248 ± 0.034. Regarding EDTPTSDDLEQFAKQFKQRRIKLGFTQAEVGLALGTLYGNVFSQTTICRFEALQLSFKNMCKLKPLLNKWLEEADSS [D29E], the abundance fitness was -0.04 ± 0.032. In the case of EDTPTSDDLEQFAKQFKQRRIKLGFTQADVGLALGTLYGNVFSQTTICRFEALQLSFKNMCKLKPLLNKQLEEADSS [W70Q], the abundance fitness was -0.728 ± 0.088. EDTPTSDDLEQFAKQFKQRRIKDGFTQADVGLALGTLYGNVFSQTTICRFEALQLSFKNMCKLKPLLNKWLEEADSS [L23D]: the abundance fitness was -0.733 ± 0.091. As to EDTPTSDDLEQFAKQFKQRRIKLGFTQADVGLALGTLYGNVFSQTTICRFEALQLSFKNMCKLKPLLNKWLEEEDSS [A74E], the abundance fitness was -0.065 ± 0.037. Take EDTPTSDDLEQFAKQFKQRRIKLGFTQADVGLALGTLYGHVFSQTTICRFEALQLSFKNMCKLKPLLNKWLEEADSS [N40H]: the abundance fitness was determined as 0.06 ± 0.085. As for EDTPTSDDLEQFAKQFKQRRIKLGFTQADVGLALGTLYGCVFSQTTICRFEALQLSFKNMCKLKPLLNKWLEEADSS [N40C], the abundance fitness came out at 0.028 ± 0.06.
